{
  "source": "patent US20250313644A1",
  "key": {"LT-α [1]": {"biological_target": "T1, LT-α (UniProt P01374)", "T1 sequence (looked up)": "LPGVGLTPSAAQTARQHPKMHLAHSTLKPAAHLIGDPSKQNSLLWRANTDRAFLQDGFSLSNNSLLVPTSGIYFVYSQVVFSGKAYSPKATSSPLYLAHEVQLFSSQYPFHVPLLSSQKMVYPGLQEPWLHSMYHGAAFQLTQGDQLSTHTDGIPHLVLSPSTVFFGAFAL", "assay": "ELISA, coated LT-α, Ab 0.391 nM"}, "LIGHT [2]": {"biological_target": "LIGHT (UniProt O43557)", "sequence (O43557 74-240 limits assumed)": "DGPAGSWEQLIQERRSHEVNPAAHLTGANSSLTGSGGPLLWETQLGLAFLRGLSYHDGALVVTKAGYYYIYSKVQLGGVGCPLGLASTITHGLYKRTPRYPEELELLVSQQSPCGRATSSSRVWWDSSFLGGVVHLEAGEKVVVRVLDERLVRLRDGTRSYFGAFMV", "assay": "ELISA, coated LIGHT, Ab 25 nM"}, "[3]": {"biological_target": "human TL1A (HuTL1A) (human) (UniProt O95150)", "sequence (O95150 57-251 limits assumed)": "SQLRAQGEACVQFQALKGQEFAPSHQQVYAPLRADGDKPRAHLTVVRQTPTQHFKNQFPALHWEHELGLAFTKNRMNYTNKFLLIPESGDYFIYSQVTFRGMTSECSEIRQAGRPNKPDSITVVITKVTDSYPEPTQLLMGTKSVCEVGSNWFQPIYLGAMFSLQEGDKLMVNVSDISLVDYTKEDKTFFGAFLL", "assay": "ELISA: biotin-HuTL1A on streptavidin plate, antibody diluted at pH 5.8, HRP-anti-human Fc, OD450"}, "FASL [4]": {"biological_target": "FASL (UniProt P48023)", "sequence (P48023 134-281 limits assumed)": "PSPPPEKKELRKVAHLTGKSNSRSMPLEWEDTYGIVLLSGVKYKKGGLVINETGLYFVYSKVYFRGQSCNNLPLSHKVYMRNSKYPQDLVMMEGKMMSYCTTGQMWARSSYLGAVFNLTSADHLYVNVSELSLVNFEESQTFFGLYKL", "assay": "ELISA, coated FASL, Ab 0.000 nM (blank)"}, "TNFα [5]": {"biological_target": "TNFα (UniProt P01375)", "sequence (P01375 77-233 limits assumed)": "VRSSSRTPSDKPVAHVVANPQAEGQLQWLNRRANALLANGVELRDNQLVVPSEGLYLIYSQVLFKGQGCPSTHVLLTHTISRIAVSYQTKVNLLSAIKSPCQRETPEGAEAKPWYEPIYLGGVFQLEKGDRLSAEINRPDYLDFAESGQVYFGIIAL", "assay": "ELISA, coated TNF-α, Ab 0.000 nM (blank)"}, "FASL [6]": {"biological_target": "FASL (UniProt P48023)", "assay": "ELISA, coated FASL, Ab 0.391 nM"}, "TNFα [7]": {"biological_target": "TNFα (UniProt P01375)", "assay": "ELISA, coated TNF-α, Ab 100 nM"}, "LIGHT [8]": {"biological_target": "LIGHT (UniProt O43557)", "assay": "ELISA, coated LIGHT, Ab 0.391 nM"}, "TNFα [9]": {"biological_target": "TNFα (UniProt P01375)", "assay": "ELISA, coated TNF-α, Ab 1.563 nM"}, "TNFα [10]": {"biological_target": "TNFα (UniProt P01375)", "assay": "ELISA, coated TNF-α, Ab 0.391 nM"}, "LT-α [11]": {"biological_target": "T1, LT-α", "assay": "ELISA, coated LT-α, Ab 25 nM"}, "LT-α [12]": {"biological_target": "T1, LT-α", "assay": "ELISA, coated LT-α, Ab 1.563 nM"}, "TNFα [13]": {"biological_target": "TNFα (UniProt P01375)", "assay": "ELISA, coated TNF-α, Ab 6.25 nM"}, "FASL [14]": {"biological_target": "FASL (UniProt P48023)", "assay": "ELISA, coated FASL, Ab 6.25 nM"}, "LIGHT [15]": {"biological_target": "LIGHT (UniProt O43557)", "assay": "ELISA, coated LIGHT, Ab 6.25 nM"}, "[16]": {"biological_target": "human TL1A (HuTL1A) (human) (UniProt O95150)"}, "FASL [17]": {"biological_target": "FASL (UniProt P48023)", "assay": "ELISA, coated FASL, Ab 100 nM"}, "LIGHT [18]": {"biological_target": "LIGHT (UniProt O43557)", "assay": "ELISA, coated LIGHT, Ab 1.563 nM"}, "[19]": {"biological_target": "human TL1A (HuTL1A) (human) (UniProt O95150)", "assay": "DLS, antigen and antibody mixed in equal moles"}, "TNFα [20]": {"biological_target": "TNFα (UniProt P01375)", "assay": "ELISA, coated TNF-α, Ab 25 nM"}, "LT-α [21]": {"biological_target": "T1, LT-α", "assay": "ELISA, coated LT-α, Ab 6.25 nM"}, "FASL [22]": {"biological_target": "FASL (UniProt P48023)", "assay": "ELISA, coated FASL, Ab 1.563 nM"}, "[23]": {"biological_target": "human TL1A (HuTL1A) (human) (UniProt O95150)", "remark": "listed apart in the source"}, "[24]": {"biological_target": "human TL1A (HuTL1A) (human) (UniProt O95150)", "assay": "competition ELISA: antibody dilution mixed 1:1 with Biotin-TL1A, added to coated DcR3 (1 µg/mL), Streptavidin-HRP, OD450; blocked partner of TL1A: DcR3"}, "LIGHT [25]": {"biological_target": "LIGHT (UniProt O43557)", "assay": "ELISA, coated LIGHT, Ab 0.000 nM (blank)"}, "LIGHT [26]": {"biological_target": "LIGHT (UniProt O43557)", "assay": "ELISA, coated LIGHT, Ab 100 nM"}, "FASL [27]": {"biological_target": "FASL (UniProt P48023)", "assay": "ELISA, coated FASL, Ab 25 nM"}, "[28]": {"biological_target": "human TL1A (HuTL1A) (human) (UniProt O95150)", "assay": "competition ELISA: antibody dilution mixed 1:1 with Biotin-TL1A, added to coated DcR3 (1 µg/mL), Streptavidin-HRP, OD450; blocked partner of TL1A: DcR3", "remark": "listed apart in the source"}, "LT-α [29]": {"biological_target": "T1, LT-α", "assay": "ELISA, coated LT-α, Ab 0.000 nM (blank)"}, "LT-α [30]": {"biological_target": "T1, LT-α", "assay": "ELISA, coated LT-α, Ab 100 nM"}, "[31]": {"biological_target": "human TL1A (HuTL1A) (human) (UniProt O95150)", "assay": "ELISA: biotin-HuTL1A on streptavidin plate, antibody diluted at pH 7.4, HRP-anti-human Fc, OD450"}},
  "note": "Read-outs that look alike come from different tables or passages of the source.",
  "data": [
    {"binder": "BM2 antibody (Merck/Prometheus TL1A monoclonal antibody PRA023) (antibody, INN chains, looked up, V domains shown) VH: QVQLVQSGAEVKKPGASVKVSCKASGFDIQDTYMHWVKQRPGQGLEWMGRIDPASGHTKYDPKFQVRVTITRDTSTSTVYLELSSLRSEDTAVYYCARSGGLPDVWGQGTTVTVSS VL: EIVLTQSPGTLSLSPGERATLSCRASSSVSYMYWYQQKPGQAPRPLIYATSNLASGIPDRFSGSGSGTDFTLTISRLEPEDFAVYYCQQWEGNPRTFGGGTKLEIK", "values": [
      {"measurement": "OD450 nm", "setting": "LT-α [1]", "result": 0.0713},
      {"measurement": "OD450 nm", "setting": "LIGHT [2]", "result": 0.076},
      {"measurement": "EC50 (read off the curve)", "setting": "[3]", "result": 0.2, "unit": "nM"},
      {"measurement": "OD450 nm", "setting": "FASL [4]", "result": 0.0549},
      {"measurement": "OD450 nm", "setting": "TNFα [5]", "result": 0.0612},
      {"measurement": "OD450 nm", "setting": "FASL [6]", "result": 0.0511},
      {"measurement": "OD450 nm", "setting": "TNFα [7]", "result": 0.0757},
      {"measurement": "OD450 nm", "setting": "LIGHT [8]", "result": 0.0643},
      {"measurement": "OD450 nm", "setting": "TNFα [9]", "result": 0.0517},
      {"measurement": "OD450 nm", "setting": "TNFα [10]", "result": 0.0522},
      {"measurement": "OD450 nm", "setting": "LT-α [11]", "result": 0.0659},
      {"measurement": "OD450 nm", "setting": "LT-α [12]", "result": 0.0701},
      {"measurement": "OD450 nm", "setting": "TNFα [13]", "result": 0.0514},
      {"measurement": "OD450 nm", "setting": "FASL [14]", "result": 0.0533},
      {"measurement": "OD450 nm", "setting": "LIGHT [15]", "result": 0.0719},
      {"measurement": "IC50 (read off the curve); IFN-γ of human T cells with IL-12, IL-18 and exogenous human TL1A", "setting": "[16]", "result": 1, "unit": "nM"},
      {"measurement": "OD450 nm", "setting": "FASL [17]", "result": 0.0828},
      {"measurement": "OD450 nm", "setting": "LIGHT [18]", "result": 0.0741},
      {"measurement": "Ave Z-dia (nm) of the antigen-antibody complex", "setting": "[19]", "result": 33.1, "unit": "nm"},
      {"measurement": "OD450 nm", "setting": "TNFα [20]", "result": 0.0577},
      {"measurement": "OD450 nm", "setting": "LT-α [21]", "result": 0.0646},
      {"measurement": "OD450 nm", "setting": "FASL [22]", "result": 0.0522},
      {"measurement": "IC50 (read off the curve); SEAP reporter in HEK293T/DR3-NFκB cells with soluble TL1A, OD655", "setting": "[23]", "result": 4, "unit": "nM"},
      {"measurement": "IC50 (read off the curve)", "setting": "[24]", "result": 7, "unit": "µg/mL"},
      {"measurement": "OD450 nm", "setting": "LIGHT [25]", "result": 0.0588},
      {"measurement": "OD450 nm", "setting": "LIGHT [26]", "result": 0.0864},
      {"measurement": "OD450 nm", "setting": "FASL [27]", "result": 0.0643},
      {"measurement": "IC50 (read off the curve)", "setting": "[28]", "result": 30, "unit": "nM"},
      {"measurement": "OD450 nm", "setting": "LT-α [29]", "result": 0.0803},
      {"measurement": "OD450 nm", "setting": "LT-α [30]", "result": 0.0701},
      {"measurement": "EC50 (read off the curve)", "setting": "[31]", "result": 0.2, "unit": "nM"}
    ]}
  ]
}
